The source of these data is paper PMC9122601, “A widespread family of WYL-domain transcriptional regulators co-localizes with diverse phage defence systems and islands”.

Residue numbers refer to the chain shown, from its start.

The target in data set [1] is BrxR from Escherichia fergusonii, untagged (Escherichia fergusonii ATCC 35469). Nature of the data set: SEC; analytical gel filtration, Superdex 200 Increase GL 5/150, 20 mM Tris-HCl pH 7.9, 150 mM NaCl, 0.175 ml/min; 50 μl samples with 5 μl of 1000 nM protein; oligomeric state from elution volume against calibration standards. (In general: SEC sorts molecules by how far they enter the pores of the column.)

The target in data set [2] is His6-BrxR-R17A from Escherichia fergusonii (Escherichia fergusonii ATCC 35469). The data set is described as above.
The target of data set [3] is His6-BrxR from Escherichia fergusonii (Escherichia fergusonii ATCC 35469). The description is as above.
For data set [4], the target named is T1, His6-BrxR (BrxR-Efer) (Escherichia fergusonii (plasmid pEFER), UniProt B7L3Y3 14-308).
T1 sequence: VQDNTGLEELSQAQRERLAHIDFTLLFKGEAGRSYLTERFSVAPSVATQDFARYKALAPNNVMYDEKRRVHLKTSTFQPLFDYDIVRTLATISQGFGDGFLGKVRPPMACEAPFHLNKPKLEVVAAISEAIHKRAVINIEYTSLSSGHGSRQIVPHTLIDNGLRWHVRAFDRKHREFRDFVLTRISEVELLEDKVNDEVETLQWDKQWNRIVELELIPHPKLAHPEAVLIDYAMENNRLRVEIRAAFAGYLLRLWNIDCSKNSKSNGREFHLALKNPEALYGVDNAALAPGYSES
The data set can be described thus: EMSA; EMSA: 10 mM Tris-HCl pH 7.9, 150 mM KCl, 0.5 mM EDTA, 0.2 mM DTT, 0.1% Triton X-100, 13% glycerol (1x of 5x buffer), 1 ug poly(dI-dC) per 10 ul, 2500 fmol probe, 25 C 30 min; 7% native PAGE in 0.5x TBE. To be noted: protein: recombinant; tags: N-terminal His6; chain copies: 2; label: 5' 6-FAM on reverse strand (primer TRB1068); blunt.

Data set [5] deals with T1, His6-BrxR (BrxR-Efer). Nature of the data set: EMSA; only non-specific binding at high protein; EMSA: 10 mM Tris-HCl pH 7.9, 150 mM KCl, 0.5 mM EDTA, 0.2 mM DTT, 0.1% Triton X-100, 13% glycerol (1x of 5x buffer), 1 ug poly(dI-dC) per 10 ul, 2500 fmol probe, 25 C 30 min; 7% native PAGE in 0.5x TBE. The note with it: protein: recombinant; tags: N-terminal His6; chain copies: 2; label: 5' 6-FAM on reverse strand (primer TRB1068); blunt.

A word on the stoichiometry N: it is a count of units in the complex or per binding partner. For orientation: Kd means the constant that tells how readily two partners part at equilibrium.

Molecule “BrxR from Escherichia fergusonii, untagged (natural protein)” had a stoichiometry N in data set [1] of 2.
Molecule “His6-BrxR-R17A from Escherichia fergusonii (natural protein)” came in with a stoichiometry N in data set [2] of 2.
In data set [3], “His6-BrxR from Escherichia fergusonii (natural protein)” registered a stoichiometry N of 2.

B1: WT IR1-IR2 probe (R7, R-BOX1) (dsDNA)
DNA 1: GACGACTTGTTGATACTATGAAACCTACTGAAAAACAGTAGGTTGCTTGATGGCATTCAATCGATGGCTTAAGCTTTTGTCAGTGCGCA
DNA 2: TGCGCACTGACAAAAGCTTAAGCCATCGATTGAATGCCATCAAGCAACCTACTGTTTTTCAGTAGGTTTCATAGTATCAACAAGTCGTC
In the case of B1, the Kd in the data set with His6-BrxR (BrxR-Efer) [4] stood at 13 ± 2.7 nM.

B2: IR1-IR2c probe (dsDNA)
DNA 1: B1 DNA 1 with A37C, G38C, T39C, A40C, G41C, G42C, T43C, T44C, G45C
DNA 2: B1 DNA 2 with C45G, A46G, A47G, C48G, C49G, T50G, A51G, C52G, T53G
As to B2, in the data set with His6-BrxR (BrxR-Efer) [4], the dissociation constant (Kd) was 85.5 ± 18.7 nM.

B3: IR1c-IR2 probe (dsDNA)
DNA 1: B1 DNA 1 with G20C, A21C, A22C, A23C, T26C, A27C, T29C, G30C
DNA 2: B1 DNA 2 with C60G, A61G, T63G, A64G, T67G, T68G, T69G, C70G
In the case of B3, the Kd with His6-BrxR (BrxR-Efer) [4] turned out to be 24 ± 6.5 nM.

B4: IR1c-IR2c probe (dsDNA)
DNA 1: GACGACTTGTTGATACTATCCCCCCCCCCCAAAAACCCCCCCCCCCTTGATGGCATTCAATCGATGGCTTAAGCTTTTGTCAGTGCGCA
DNA 2: TGCGCACTGACAAAAGCTTAAGCCATCGATTGAATGCCATCAAGGGGGGGGGGGTTTTTGGGGGGGGGGGATAGTATCAACAAGTCGTC
As to B4, the binding result in the data set with His6-BrxR (BrxR-Efer) [5] is given as “no binding”.
